Experimental findings from US20160068613A1 are described below.

This experiment deals with human neonatal Fc-receptor (FcRn) (human) (UniProt P55899). Briefly: FcRn affinity chromatography.
Chain of human neonatal Fc-receptor (FcRn) (human) (P55899 24-297 limits assumed, chain 1 of 2): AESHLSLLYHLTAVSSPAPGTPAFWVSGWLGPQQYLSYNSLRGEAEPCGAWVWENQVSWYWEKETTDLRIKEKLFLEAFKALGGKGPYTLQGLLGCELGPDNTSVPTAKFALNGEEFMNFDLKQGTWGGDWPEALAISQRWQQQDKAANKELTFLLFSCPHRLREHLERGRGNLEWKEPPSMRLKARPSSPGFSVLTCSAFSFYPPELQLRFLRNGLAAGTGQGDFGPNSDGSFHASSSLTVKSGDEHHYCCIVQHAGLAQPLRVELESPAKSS
Chain of human neonatal Fc-receptor (FcRn) (human) (P61769 21-119 limits assumed, chain 2 of 2, further chain): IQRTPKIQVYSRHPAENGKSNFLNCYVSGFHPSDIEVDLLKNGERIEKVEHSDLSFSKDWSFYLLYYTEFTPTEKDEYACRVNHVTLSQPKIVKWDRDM
In turn, “anti-HER2 antibody, symmetrically modified, N434H” returned a retention time of 52 min.
In turn, “anti-HER2 antibody, symmetrically modified, K290H” had a retention time of 46.2 min.
On to “bispecific anti-VEGF/ANG2 antibody (knobs-into-holes), one chain with H435A (bispecific antibody)”, for which the retention time on FcRn affinity column is 48.8 min.
With “anti-HER2 antibody, symmetrically modified, K288E”, the retention time worked out at 45.2 min.
For the substance “anti-HER2 antibody, symmetrically modified, E430H”, the retention time stood at 46.4 min.
On the same count and under the same terms, to “anti-HER2 antibody, symmetrically modified, D98E” belongs 46.2 min.
Consider “anti-HER2 antibody, symmetrically modified, R255D”, for which the retention time is 41.4 min.
In turn, “bispecific anti-VEGF/ANG2 antibody (knobs-into-holes), one chain with M252Y/S254T/T256E (bispecific antibody)” came in with a retention time on FcRn affinity column of 56.2 min.
Take “bispecific anti-VEGF/ANG2 antibody (knobs-into-holes), one chain with H310A/H433A/Y436A (bispecific antibody)”: the retention time on FcRn affinity column is 46.7 min.
“IgG1 Fc-region, symmetric, L234A/L235A/P329G + Y436A” returned a FcRn-affinity column retention time of 41.3 min.
In turn, “bispecific anti-VEGF/ANG2 antibody (knobs-into-holes), one chain with I253A (bispecific antibody)” returned a retention time on FcRn affinity column of 48.8 min.
Turning to “anti-HER2 antibody, symmetrically modified, Q311H”, the retention time is 46.3 min.
In the case of “anti-HER2 antibody, symmetrically modified, T256H”, the retention time was determined as 46 min.
“anti-HER2 antibody, symmetrically modified, L309H” came in with a retention time of 45.5 min.
For the substance “bispecific anti-VEGF/ANG2 antibody (knobs-into-holes), one chain with L251D/L314D/L432D (bispecific antibody)”, the retention time on FcRn affinity column worked out at 46.3 min.
For anti-HER2 antibody, wild-type, the retention time was 46.3 min.
As to “anti-HER2 antibody, symmetrically modified, K317H”, the retention time was found to be 46.3 min.
In turn, “bispecific anti-VEGF/ANG2 antibody (knobs-into-holes), one chain with H310A (bispecific antibody)” registered a retention time on FcRn affinity column of 48.4 min.
Substance “anti-HER2 antibody, symmetrically modified, E258H” showed a retention time of 45.6 min.
As for “bispecific anti-VEGF/ANG2 antibody (knobs-into-holes), no FcRn affecting mutation (bispecific antibody)”, the retention time on FcRn affinity column amounted to 51.8 min.
